Laboratory results from PMC10058238, “Mechanism of sphingolipid homeostasis revealed by structural analysis of Arabidopsis SPT-ORM1 complex” (Science Advances, 2023).
Changes are numbered by the printed parent chain. In names and notes the source's numbering stands.

T1: Flag-tagged Arabidopsis SPTssa (Arabidopsis, UniProt A8MSB8 1-56)
T1 construct: SPTssa, small subunit of serine palmitoyltransferase, Arabidopsis; codon-optimized cDNA in pCAG; residues 1 to 48 are in the atomic model; The only tagged subunit; bait of every purification; also called Flag-SPTssa; Flag-AtSPTssa; source: HEK293F, transiently cotransfected with the other subunits, purified as a complex (anti-Flag resin, Superose 6) in GDN; not shown: Flag, N-terminal, kept
T1 sequence: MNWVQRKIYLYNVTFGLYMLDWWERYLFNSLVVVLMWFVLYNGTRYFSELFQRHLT

T2: Arabidopsis SPT complex (LCB1, LCB2a, SPTssa) (Arabidopsis, UniProt Q94IB8 1-482; Q9LSZ9 1-489; A8MSB8 1-56)
T2 sequence 1: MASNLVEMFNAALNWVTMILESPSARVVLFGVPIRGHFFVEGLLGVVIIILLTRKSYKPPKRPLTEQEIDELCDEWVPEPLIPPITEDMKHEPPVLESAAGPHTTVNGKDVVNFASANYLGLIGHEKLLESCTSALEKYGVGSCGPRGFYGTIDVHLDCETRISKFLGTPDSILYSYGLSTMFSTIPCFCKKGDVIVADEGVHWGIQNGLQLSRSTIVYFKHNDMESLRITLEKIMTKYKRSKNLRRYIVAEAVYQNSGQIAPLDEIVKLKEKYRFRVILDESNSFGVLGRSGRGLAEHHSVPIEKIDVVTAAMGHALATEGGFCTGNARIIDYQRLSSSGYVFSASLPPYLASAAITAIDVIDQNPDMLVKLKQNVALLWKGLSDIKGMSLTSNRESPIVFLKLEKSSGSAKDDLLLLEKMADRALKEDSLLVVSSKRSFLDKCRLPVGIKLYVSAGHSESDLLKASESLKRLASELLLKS
T2 sequence 2: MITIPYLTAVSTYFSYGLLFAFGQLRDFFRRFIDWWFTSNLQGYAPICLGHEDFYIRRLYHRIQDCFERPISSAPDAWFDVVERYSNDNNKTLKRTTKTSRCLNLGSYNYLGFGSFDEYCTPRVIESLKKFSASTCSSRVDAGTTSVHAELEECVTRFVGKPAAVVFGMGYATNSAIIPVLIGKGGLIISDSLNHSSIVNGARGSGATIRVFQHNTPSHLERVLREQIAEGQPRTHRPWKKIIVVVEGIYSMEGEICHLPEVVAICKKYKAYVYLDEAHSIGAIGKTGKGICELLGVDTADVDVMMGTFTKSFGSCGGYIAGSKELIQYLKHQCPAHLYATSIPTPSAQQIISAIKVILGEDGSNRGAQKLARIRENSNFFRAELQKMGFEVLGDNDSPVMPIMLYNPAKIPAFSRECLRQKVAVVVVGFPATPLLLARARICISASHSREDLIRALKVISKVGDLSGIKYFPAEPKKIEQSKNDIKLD
T2 sequence 3: T1 sequence

T3: Arabidopsis LCB2a-ΔN5 (Arabidopsis, UniProt Q9LSZ9 1-489, LCB2a-ΔN5 (deletion of residues 2 to 5))
T3 construct: LCB2a, Arabidopsis, with residues 2 to 5 deleted; also called LCB2a-ΔN5 variant
T3 sequence: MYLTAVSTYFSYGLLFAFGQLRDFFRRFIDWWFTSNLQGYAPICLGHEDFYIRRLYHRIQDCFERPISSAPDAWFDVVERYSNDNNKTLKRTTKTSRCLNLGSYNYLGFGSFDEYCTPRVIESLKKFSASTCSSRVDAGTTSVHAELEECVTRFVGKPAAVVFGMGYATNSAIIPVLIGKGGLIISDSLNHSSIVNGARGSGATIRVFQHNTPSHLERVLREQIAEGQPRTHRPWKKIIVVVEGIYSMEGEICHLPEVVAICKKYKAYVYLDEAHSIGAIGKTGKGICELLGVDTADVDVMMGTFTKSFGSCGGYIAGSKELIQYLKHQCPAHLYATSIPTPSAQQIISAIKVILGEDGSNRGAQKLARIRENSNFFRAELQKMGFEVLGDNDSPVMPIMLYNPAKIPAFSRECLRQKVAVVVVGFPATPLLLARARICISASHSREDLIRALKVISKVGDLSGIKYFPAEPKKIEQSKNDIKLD

B1: Arabidopsis LCB2a (natural protein)
chain: T2 sequence 2
modifications: pyridoxal 5'-phosphate covalently linked to the ε-amino group of Lys311 (internal aldimine)
notes: LCB2a, subunit of serine palmitoyltransferase, Arabidopsis; codon-optimized cDNA in pCAG without a tag; residues 1 to 36 and 41 to 475 are in the atomic model; The sentence on the PLP link prints 'LCB2b'; the construct is LCB2a; also called AtLCB2a; source: HEK293F, transiently cotransfected with the other subunits, purified as a complex (anti-Flag resin, Superose 6) in GDN
B2: Arabidopsis LCB1 (natural protein, UniProt Q94IB8 1-482, looked up)
chain: T2 sequence 1
notes: LCB1, subunit of serine palmitoyltransferase, Arabidopsis; codon-optimized cDNA in pCAG without a tag; residues 36 to 480 are in the atomic model; also called AtLCB1; source: HEK293F, transiently cotransfected with the other subunits, purified as a complex (anti-Flag resin, Superose 6) in GDN
B3: Arabidopsis ORM1 (natural protein)
chain: MANLYVKAVPPPDMNRNTEWFMYPGVWTTYMLILFFGWLVVLSVSGCSPGMAWTVVNLAHFVVTYHSFHWMKGTPFADDQGIYNGLTWWEQMDNGQQLTRNRKFLTLVPVVLYLIASHTTDYRHPWLFLNTLAVMVLVVAKFPNMHKVRIFGINGDK
notes: ORM1, Arabidopsis; codon-optimized cDNA in pCAG without a tag; residues 1 to 156 are in the atomic model; also called AtORM1; WT ORM1
B4: Arabidopsis SPT-ORM1 complex (LCB1, LCB2a, SPTssa, ORM1) (complex)
chain 1: T2 sequence 1
chain 2: T2 sequence 2
chain 3: T1 sequence
chain 4: B3 chain
modifications: pyridoxal 5'-phosphate covalently linked to the ε-amino group of Lys311 (internal aldimine)
notes: LCB1, Arabidopsis; as m1; LCB2a, Arabidopsis; as m2; SPTssa, Arabidopsis; as m3; ORM1, Arabidopsis; as m4; One protomer (1:1:1:1) of the dimer seen by cryo-EM; an endogenous ceramide copurifies between ORM1 and LCB2a; also called AtSPT-ORM1; WT SPT-ORM1 complex; source: HEK293F, transiently cotransfected (LCB1:LCB2a:ORM1:SPTssa = 3:3:3:1), purified (anti-Flag resin, Superose 6) in GDN; not shown: …
B5: Arabidopsis ORM1-N17A (natural protein)
chain: B3 chain with N17A
notes: ORM1, Arabidopsis, with N17A; residues 1 to 11 almost invisible in the map; also called ORM1-N17A variant

Assays:
[1] = target: T1, Flag-tagged Arabidopsis SPTssa; assay: cryo-EM structure; single-particle cryo-EM of the coexpressed, purified complexes (WT, ORM1-N17A, LCB2a-ΔN5) at ~18 mg/ml in 25 mM Hepes pH 7.5, 150 mM NaCl, 0.01% GDN; the LCB2a-ΔN5 sample preincubated with 0.5 mM PLP, 10 mM L-serine and 1 mM S-CoA; conditions: both partners purified
[2] = target: T2, Arabidopsis SPT complex (LCB1, LCB2a, …); assay: cell-based or functional assay
Arabidopsis LCB2a = target: B1; assay: cryo-EM structure; single-particle cryo-EM of the coexpressed, purified complexes (WT, ORM1-N17A, LCB2a-ΔN5) at ~18 mg/ml in 25 mM Hepes pH 7.5, 150 mM NaCl, 0.01% GDN; the LCB2a-ΔN5 sample preincubated with 0.5 mM PLP, 10 mM L-serine and 1 mM S-CoA; conditions: both partners purified
Arabidopsis LCB2a-ΔN5 = target: T3, Arabidopsis LCB2a-ΔN5; assay: as above; conditions: both partners purified
[3] = target: the molecule itself; assay: as above

| Binder | stoichiometry N [1] | binding result (Arabidopsis LCB2a) | other results |
| --- | --- | --- | --- |
| B1 | 1 | – | – |
| B2 | 1 | – | – |
| B3 | 1 | binds | specific SPT activity of the purified SPT-ORM1 complex at saturating conditions, relative to the SPT complex [2]: ~50%; binding result (Arabidopsis LCB2a-ΔN5): binds |
| B4 | – | – | stoichiometry N [3]: 2 |
| B5 | – | binds | – |
